According to patent US20220389097A1 (Genentech, published 2022):
One block for each binder: values may come before it.

Assays:
[1] = target: T1, soluble human TREM2 (sTREM2) (human, UniProt Q9NZC2 19-157); test: sandwich ELISA: antibody coated as capture, sTREM2 from BMDM supernatant, biotinylated 3.17A9 detection
T1 construct: also called soluble TREM2; TREM2 ectodomain
T1 sequence: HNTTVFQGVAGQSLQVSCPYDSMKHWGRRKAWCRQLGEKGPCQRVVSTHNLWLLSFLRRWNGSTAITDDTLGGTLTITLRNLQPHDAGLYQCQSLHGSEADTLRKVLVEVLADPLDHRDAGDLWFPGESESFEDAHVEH
Protocol: (§1) A human TREM2 ELISA assay was used to measure binding of more than forty antibodies to soluble TREM2 (sTREM2) as follows: test anti-hTREM2 antibodies were coated onto plate wells as capture reagents and a biotinylated IgV-reactive monoclonal antibody, 3.17A9, was used as the detection reagent. Antibody 1.16B8 was used as a control antibody to establish the standard for sTREM2 binding. Plates coated with test or control antibody were incubated with diluted culture supernatant from bone marrow-derived macrophage (BMDM) cultures from transgenic mice expressing hTREM2. sTREM2 is constitutively produced by the BMDM cultures expressing hTREM2 and shed into the culture supernatant. Measurements were recorded at 450 nm for detection and 570 nm for background. The 3.17A9/1.16B8 antibody pair was selected over reagents provided in the R&D Systems kit as the commercial reagents were not compatible with sTREM2 detection of some of the antibodies tested. Control antibody 1.16B8 light chain sequence is shown in SEQ ID NO: 170, and its heavy chain sequence is shown in SEQ ID NO: 171.

[2] = target: T2, soluble monomeric human TREM2 (human, UniProt Q9NZC2 19-174, limits assumed); test: SPR (Biacore 8K); mutant IgG on anti-human Fab chip, soluble monomeric TREM2
T2 construct: Not the same as shed sTREM2; also called soluble monomeric TREM2
T2 sequence: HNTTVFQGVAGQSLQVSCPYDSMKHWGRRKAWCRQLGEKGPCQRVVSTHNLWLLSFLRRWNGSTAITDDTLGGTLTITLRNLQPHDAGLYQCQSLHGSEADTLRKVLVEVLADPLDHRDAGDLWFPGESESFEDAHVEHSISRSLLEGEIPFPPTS
Text: The resulting library consists of individual IgG clones, each with one mutation per molecule in the heavy chain variable regions. Clones were screened for off-rate (dissociation rate) by SPR in a Biacore™ 8K instrument using anti-human Fab chips to capture mutant IgGs and soluble monomeric TREM2 as ligand.

[3] = target: T3, human TREM2 on cells (human, UniProt Q9NZC2 19-230); test: cell-based or functional assay
T3 sequence: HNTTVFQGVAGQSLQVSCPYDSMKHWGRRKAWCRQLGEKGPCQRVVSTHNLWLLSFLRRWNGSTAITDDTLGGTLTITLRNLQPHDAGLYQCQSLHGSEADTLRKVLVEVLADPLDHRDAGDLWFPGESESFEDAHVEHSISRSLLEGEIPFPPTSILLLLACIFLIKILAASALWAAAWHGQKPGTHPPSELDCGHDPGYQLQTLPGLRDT

[4] = target: T3, human TREM2 on cells; test: cell-based or functional assay; remark: listed apart in the source
[5] = target: T2, soluble monomeric human TREM2; test: SPR (Biacore T200), 37 C; IgG on anti-CH1 chip, soluble monomeric TREM2
[6] = target: T1, soluble human TREM2 (sTREM2); test: sandwich ELISA: test antibody coated as capture, sTREM2 from BMDM culture supernatant, biotinylated 3.17A9 as detection
Text: For example, as shown in an Example 11 herein, the human TREM2 ELISA assay measured binding of antibodies to sTREM2 by coating onto plate wells the antibody to be tested as capture reagents and with biotinylated IgV-reactive monoclonal antibody 3.17A9 used as the detection reagent. Control antibody 1.16B8 was used as a positive control antibody to establish the standard for sTREM2 binding.
as §1, with “Control antibody 1.16B8 light chain sequence is shown in SEQ ID NO: 170, and its heavy chain sequence is shown in SEQ ID NO: 171.” left out

binding result [1]: binds
B1: control antibody 1.16B8 (antibody, mouse IgG2a, kappa, V domains shown)
VH: EVQLVESGGGLVQPGRSLKLSCAASGFTFSDSAMAWVRQAPKKGLEWVATIIYDTSSTYYRDSVKGRFTISRDNAKSTLYLQMDSLRSEDTATYYCALFGVDVMDAWGQGASVTVSS
VL: DIQMTQTPSSMPASLGERVTISCRASQGISNYLNWYQQKPDGTIKPLIYYTSNLQSGVPSRFSGSGSGTDYSLTISSLEPEDFAMYYCQQYDSSPWTFGGGTKLEIKR
notes: also called CTL; 1.116B8

binding result [2]: no binding
B2: 3.10C2 D101E mutant IgG (antibody, name in Kabat numbering, V domains shown)
VH: EVQLVETGGSLVQPGKSLKLTCATSGFPFSNVWMHWVRQSPEKQLEWIAHIKAKSDNYATYYAESVKGRFTISRDDSKTSIYLQMNSLKEDDTAIYYCTGLEYWGQGVMVTVSS
VL: DTVLTQAPLSLSVTPGESASISCRSSKSLLGVRDITSLYWYLQKPGKSPQLLIYRMSNLASGVPDRFSGSGSETDFTLKISEVETEDVGVYYCAQFLRYPYTFGPGTKLELK
notes: IgG captured on anti-human Fab chip

EC50, average X04 plaque intensity, human iPSC-derived microglia plaque assay (FIG. 24C) [3]: 320 nM
EC50, total Abeta plaque intensity, human iPSC-derived microglia plaque assay (FIG. 24B) [3]: 330 nM
phospho-SYK/total SYK relative to anti-gD control, iPSC-derived microglia, 1 hour [3]: 2 fold
phospho-SYK/total SYK relative to anti-gD control, iPSC-derived microglia, 4 hours [3]: > 10 fold
EC50, Jurkat NFAT luciferase reporter cells [4]: 0.0245 µg/mL
IC50, TREM2 shedding inhibition in Jurkat-NFAT reporter cells (sTREM2 ELISA) [4]: 0.162 µg/mL
Kd [5]: 0.016 nM
koff [5]: 3.5e-05 s⁻¹
kon [5]: 2.3e+06 M⁻¹ s⁻¹
binding result [6]: no binding
B3: hPara.09.v2 hIgG1 N297G (antibody, V domains shown)
VH: EVQLVESGGGLVQPGGSLKLSCATSGFPFSNVWLHWVRQASGKGPEWVAHIKAKSDNYATYYAESVKGRFTISRDDSKNTVYLQMNSLKTEDTAVYYCTDILEYWGQGTLVTVSS
VL: DVVMTQSPLSLPVTPGEPASISCRSSRSLLTSKGITSLYWYLQKPGQSPQLLIYRMSNLASGIPDRFSGSGSGTDFTLKISRVEAEDVGVYYCAQFLVYPYTFGQGTKVEIKR
notes: also called hPara.09.H5.hIgG1.N297G
EC50, survival of iPSC-derived microglia (FIG. 23E) [3]: 0.065 nM
